Test results as given in patent publication US20200199231A1.

Target: human CD20 (human) (UniProt P11836)
Assay: flow cytometry on Daudi cells (CD20-positive, CD3-negative); PE-conjugated goat anti-human IgG F(ab')2; geomean (PE)

Sequence of human CD20 (human) (P11836 whole entry): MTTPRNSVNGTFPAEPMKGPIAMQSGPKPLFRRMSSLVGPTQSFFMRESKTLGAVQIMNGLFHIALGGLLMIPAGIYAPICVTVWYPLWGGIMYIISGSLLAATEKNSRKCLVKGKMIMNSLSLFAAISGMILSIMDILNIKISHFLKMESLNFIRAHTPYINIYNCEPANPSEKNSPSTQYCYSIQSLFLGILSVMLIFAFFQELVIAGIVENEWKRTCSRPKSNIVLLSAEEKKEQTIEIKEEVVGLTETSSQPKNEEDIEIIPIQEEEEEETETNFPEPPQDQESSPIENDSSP

Substance | EC50 (read off the curve) [µg/mL]
IgG1-RTX (antibody) | 0.7
IgG1-GA101 (antibody) | 0.6
